For one substance, Kd results are on record in PMC6771230.

This data set deals with YB-1. Put plainly: EMSA. The note with it: serial-diluted protein; RNA-EMSA in Thermo Scientific kit binding buffer, 6% polyacrylamide gel; salt, pH and temperature not stated.

Usually Kd stands for the concentration at which binding is half-saturated. Take H19 RNA fragment 661-745 (85 nt): the Kd was found to be 7.4 µM.
